Assay results reported in PMC7488360 (Acta Pharmaceutica Sinica. B, 2020).

Tests used:
HuR (human antigen R) = HuR (human antigen R) (Homo sapiens, UniProt Q15717); test: SPR; type: binding
HuR RRM12 = HuR RRM12 (UniProt Q15717 18-186); test: EMSA
HuR full-length = HuR full-length (UniProt Q15717 1-326); test: EMSA
Sequence of HuR full-length (Q15717 whole entry): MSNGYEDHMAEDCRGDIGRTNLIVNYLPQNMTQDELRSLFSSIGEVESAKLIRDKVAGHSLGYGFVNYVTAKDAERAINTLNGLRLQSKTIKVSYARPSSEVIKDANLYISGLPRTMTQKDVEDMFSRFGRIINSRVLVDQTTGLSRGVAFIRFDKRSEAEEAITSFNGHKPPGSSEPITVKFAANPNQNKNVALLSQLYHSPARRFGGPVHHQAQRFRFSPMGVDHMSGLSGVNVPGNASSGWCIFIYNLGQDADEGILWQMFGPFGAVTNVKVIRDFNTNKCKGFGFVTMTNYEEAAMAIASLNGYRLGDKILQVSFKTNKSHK

Sequence of HuR (human antigen R) (Q15717 18-186): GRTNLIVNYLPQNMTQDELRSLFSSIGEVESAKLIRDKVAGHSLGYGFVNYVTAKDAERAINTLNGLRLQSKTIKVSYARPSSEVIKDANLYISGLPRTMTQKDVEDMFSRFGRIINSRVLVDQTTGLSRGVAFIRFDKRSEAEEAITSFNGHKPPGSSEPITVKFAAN
Sequence of HuR RRM12 (Q15717 18-186): as above

Kd (HuR (human antigen R)) [nM]	Molecule	binding result (HuR RRM12)	binding result (HuR full-length)
2500	CC1=NN(c2ccc(C)c(C)c2)C(=O)/C1=N\Nc1cccc(-c2cccc(C(=O)O)c2)c1O [eltrombopag]		
	AAUUCUACAUACUAAAUCUCUCUCCUUUUUUAAUUUUAAUAUUUG (ssRNA) [AREVegf-a]	binds	binds
